Measurements: paper PMC10591882 (Cell reports, 2023)

Target: T1, TBEV envelope protein domain III (EDIII) (Tick-borne encephalitis virus, Western …)
T1 chain: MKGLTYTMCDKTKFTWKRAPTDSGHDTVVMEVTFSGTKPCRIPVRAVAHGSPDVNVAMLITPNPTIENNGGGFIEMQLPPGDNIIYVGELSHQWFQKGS
Test: cell-based or functional assay

B1: human monoclonal antibody T025 (antibody, V domains shown)
VH: QVQLVESGGGVVQPGRSLRLSCAASGFTFSNYGMHWVRQAPGKGLDWVAVISYDAISKSYADSVEGRFTISRDNSKNTLYLQMNSLRAEDSAVYYCAKSPTAIDPPFDYWGQGTLVTVSS
VL: EIVMTQSPATLSVSPGERATLSCWASQSVSSNLAWYQQKPGQAPRLLIYGASTRATGIPARFSASGSGTEFTLTISSLQSEDFAVYYCQQYNNWPPRFGQGTKVEIK
IC50 of neutralisation of TBEV-Hypr (virus neutralization test on PS cells): 0.0293 µg/mL
